Laboratory results reported in paper PMC5670239 (2017).

Tests used:
Assay in all cases: ITC
[1] = target: T1, NELF-E 244-380 (Homo sapiens, UniProt P18615)
T1 chain: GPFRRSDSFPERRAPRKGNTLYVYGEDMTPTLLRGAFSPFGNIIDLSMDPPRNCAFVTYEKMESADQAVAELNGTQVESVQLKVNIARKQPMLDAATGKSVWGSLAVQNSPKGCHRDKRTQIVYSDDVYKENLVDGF

[2] = target: T2, ARS2 763-871 (Homo sapiens, UniProt Q9BXP5)
T2 chain: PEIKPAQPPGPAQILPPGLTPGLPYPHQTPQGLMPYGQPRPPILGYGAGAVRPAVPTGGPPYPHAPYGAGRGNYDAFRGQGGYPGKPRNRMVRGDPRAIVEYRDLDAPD

[3] = target: PHAX (Homo sapiens, UniProt Q9H814)
PHAX, sequence (Q9H814 2-394): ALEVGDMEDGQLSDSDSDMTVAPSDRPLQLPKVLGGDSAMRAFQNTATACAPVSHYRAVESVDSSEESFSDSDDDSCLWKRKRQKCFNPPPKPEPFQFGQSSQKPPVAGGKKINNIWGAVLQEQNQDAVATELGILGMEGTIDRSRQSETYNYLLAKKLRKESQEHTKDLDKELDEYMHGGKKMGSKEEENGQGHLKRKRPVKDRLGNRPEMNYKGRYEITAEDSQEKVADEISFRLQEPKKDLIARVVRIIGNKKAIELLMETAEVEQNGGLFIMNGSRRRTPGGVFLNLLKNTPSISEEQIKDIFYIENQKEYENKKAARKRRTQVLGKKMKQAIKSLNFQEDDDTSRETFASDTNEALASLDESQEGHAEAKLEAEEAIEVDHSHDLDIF

[4] = target: T3, ARS2 827-871 (Homo sapiens, UniProt Q9BXP5, m7GTP)
T3 chain: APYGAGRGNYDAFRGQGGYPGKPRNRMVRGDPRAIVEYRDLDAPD

[5] = target: T4, ARS2 845-871 (Homo sapiens, UniProt Q9BXP5, m7GTP)
T4 chain: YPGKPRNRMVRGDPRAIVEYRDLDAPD

[6] = target: T5, PHAX 103-308 (Homo sapiens, UniProt Q9H814)
T5 chain: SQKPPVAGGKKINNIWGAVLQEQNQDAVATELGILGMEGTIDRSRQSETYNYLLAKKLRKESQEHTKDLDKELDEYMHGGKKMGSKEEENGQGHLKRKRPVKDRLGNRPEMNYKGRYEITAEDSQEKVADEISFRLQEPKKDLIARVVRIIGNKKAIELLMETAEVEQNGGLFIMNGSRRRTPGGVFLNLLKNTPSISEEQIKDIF

[7] = target: T6, NELF-E 360-380 (Homo sapiens, UniProt P18615, m7GTP)
T6 chain: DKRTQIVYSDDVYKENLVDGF

B1: CBC (protein)
chain 1: MSRRRHSDENDGGQPHKRRKTSDANETEDHLESLICKVGEKSACSLESNLEGLAGVLEADLPNYKSKILRLLCTVARLLPEKLTIYTTLVGLLNARNYNFGGEFVEAMIRQLKESLKANNYNEAVYLVRFLSDLVNCHVIAAPSMVAMFENFVSVTQEEDVPQVRRDWYVYAFLSSLPWVGKELYEKKDAEMDRIFANTESYLKRRQKTHVPMLQVWTADKPHPQEEYLDCLWAQIQKLKKDRWQERHILRPYLAFDSILCEALQHNLPPFTPPPHTEDSVYPMPRVIFRMFDYTDDPEGPVMPGSHSVERFVIEENLHCIIKSHWKERKTCAAQLVSYPGKNKIPLNYHIVEVIFAELFQLPAPPHIDVMYTTLLIELCKLQPGSLPQVLAQATEMLYMRLDTMNTTCVDRFINWFSHHLSNFQFRWSWEDWSDCLSQDPESPKPKFVREVLEKCMRLSYHQRILDIVPPTFSALCPANPTCIYKYGDESSNSLPGHSVALCLAVAFKSKATNDEIFSILKDVPNPNQDDDDDEGFSFNPLKIEVFVQTLLHLAAKSFSHSFSALAKFHEVFKTLAESDEGKLHVLRVMFEVWRNHPQMIAVLVDKMIRTQIVDCAAVANWIFSSELSRDFTRLFVWEILHSTIRKMNKHVLKIQKELEEAKEKLARQHKRRSDDDDRSSDRKDGVLEEQIERLQEKVESAQSEQKNLFLVIFQRFIMILTEHLVRCETDGTSVLTPWYKNCIERLQQIFLQHHQIIQQYMVTLENLLFTAELDPHILAVFQQFCALQA
chain 2: SGGLLKALRSDSYVELSQYRDQHFRGDNEEQEKLLKKSCTLYVGNLSFYTTEEQIYELFSKSGDIKKIIMGLDKMKKTACGFCFVEYYSRADAENAMRYINGTRLDDRIIRTDWDAGFKEGRQYGRGRSGGQVRDEYRQDYDAGRGGYGKLAQNQ
modifications: m7GTP
[1]
  Kd: ~50 nM
[2]
  Kd: 1000 nM

B2: CBC (protein)
chain 1: MSRRRHSDENDGGQPHKRRKTSDANETEDHLESLICKVGEKSACSLESNLEGLAGVLEADLPNYKSKILRLLCTVARLLPEKLTIYTTLVGLLNARNYNFGGEFVEAMIRQLKESLKANNYNEAVYLVRFLSDLVNCHVIAAPSMVAMFENFVSVTQEEDVPQVRRDWYVYAFLSSLPWVGKELYEKKDAEMDRIFANTESYLKRRQKTHVPMLQVWTADKPHPQEEYLDCLWAQIQKLKKDRWQERHILRPYLAFDSILCEALQHNLPPFTPPPHTEDSVYPMPRVIFRMFDYTDDPEGPVMPGSHSVERFVIEENLHCIIKSHWKERKTCAAQLVSYPGKNKIPLNYHIVEVIFAELFQLPAPPHIDVMYTTLLIELCKLQPGSLPQVLAQATEMLYMRLDTMNTTCVDRFINWFSHHLSNFQFRWSWEDWSDCLSQDPESPKPKFVREVLEKCMRLSYHQRILDIVPPTFSALCPANPTCIYKYGDESSNSLPGHSVALCLAVAFKSKATNDEIFSILKDVPNPNQDDDDDEGFSFNPLKIEVFVQTLLHLAAKSFSHSFSALAKFHEVFKTLAESDEGKLHVLRVMFEVWRNHPQMIAVLVDKMIRTQIVDCAAVANWIFSSELSRDFTRLFVWEILHSTIRKMNKHVLKIQKELEEAKEKLARQHKRRSDDDDRSSDRKDGVLEEQIERLQEKVESAQSEQKNLFLVIFQRFIMILTEHLVRCETDGTSVLTPWYKNCIERLQQIFLQHHQIIQQYMVTLENLLFTAELDPHILAVFQQFCALQA
chain 2: SGGLLKALRSDSYVELSQYRDQHFRGDNEEQEKLLKKSCTLYVGNLSFYTTEEQIYELFSKSGDIKKIIMGLDKMKKTACGFCFVEYYSRADAENAMRYINGTRLDDRIIRTDWDAGFKEGRQYGRGRSGGQVRDEYRQDYDAGRGGYGKLAQNQ
[3]
  Kd: 300 nM
[1]
  Kd: ~400 nM
[4]
  Kd: 1000 nM
[5]
  Kd: 1100 nM
[6]
  Kd: 600 nM
[7]
  Kd: ~3300 nM
